Results published in the supplement of paper PMC9170038.

These sequences were tested on K4 kissing-loop RNA reporter (assay: apparent KD of K4 kissing-loop reporter; higher = weaker reporter binding). Details: Eterna round: R107; input ligand: arginine 13.2 mM.
Experimental: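 RNA-MaP round R107: designed RNA switches with theophylline, tryptophan, arginine or FMN aptamers are transcribed on-chip within common flanks. They are titrated with a labelled K4 kissing-loop RNA reporter in RNA-MaP buffer (100 mM Tris pH 7.5, 80 mM KCl, 4 mM MgCl2), without ligand or with the indicated ligand. Median apparent KD per design.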
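Further: bound reporter read as fluorescence of individual clusters on recovered sequencing chips by microscopy, with normalized cluster intensities fitted with a binding model.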

Sequence	apparent KD of K4 kissing-loop reporter [nM]
GUCUGCUGUAUCGAUACCAGAAGUGGGCAGUGAUGUUGUUCGGGUACAUCGCGUCUCGAGUUCCCUUGGCAGCGAUUGUACGAAU [theeternabot_exclusion_KL_Theo_B_12]	571
CGCGGCCGGCCGGAUACCAGUGACCCGCUGGAAACCGCGGGCCCAGAGUGAUGUUCGGGACACCCUUGGCAGCCGCCUGGGCGUG [#2 Same State - Theophylline B Attempt #2 (HarryS)]	309
GGUAGCAUGGCGGCCGCCACUUUAUACUCGGUCGUUGGCGUCGUAAGUGAUGUUUACAUUCGCAAAAGGACCGGGCCAUGCUACC	56.6
UCCUAGGCUCGAAAGAGCCUAGGUUAGACUCAGGAUAUCUGGAAACAGAGAAGGGAGCUACUAGUGAUGUUAGGAAUUCCCAUUU	85.7
AGACUUCACCGAAGGAGCGACGUGGCCUAGUGAUGUUAGGCACGAGAGAAAUCUCGUAUACGUCAGGUAGGUCGCGGUGAAGUCA [Omei KL Arginine B SS C v6]	142
AGACUACCAACACUGUCAAUAGACAGUGACUAGGAUAUGCUGAUAAGCAGAAGGAGUGAUGUUCCUAAUAGAAAGGUAGUCAAAU [FmnAX 17 #SwitchBubble #StaticStem #K4Early]	237

Same assay, conditions: Eterna round: R107; input ligand: none

Sequence	apparent KD of K4 kissing-loop reporter [nM]
UCCUAGGUUCGUCGGCGAAAGCCCUGCGAAGGAGCGUGCGAAAGUACAGGUAGGUCGCGCAGUGAUGUUGCACCUAGGUAAUAAA [#07 K4 Arginine A Exclusion]	319
ACACUAUCGUCAUAGACGGUAGUGAAAUCACAGGAUAUAAGUGAUGUUAGAAGGGUGAAAGACUGUAUCGAAUAGAUACAGUCAA [FmnA 3 #K4BetweenAptamer #OpenEnded]	913
AAGAGGUAGGCGGCCGCCACUUGUUGUGAACACAUACGAGCCAGUGAUGUUGGUAUUGUGGGCGGAAGGACCGGGCCUACCUGAA [Exclusion - Tryptophan B (Freestyle 20)]	320
AGCUCAGAGUGACUCGAUAAGAGUCACAAACGAGGACCGGUACGGCCGCCACUCGAAAUAAUGAGAGUGAUGUUCUCGCUGAGCA [#SwitchBubble 2 #StaticStem #K4Late]	89
UGGGCCGCCUGAGGAUAUAGAGACGAGUGAUGUUCGUGGAUCAGAGCCAGUGAUGUUGGGUUAUUUCUAGAAGGCGGGCGAACUU [Exclusion FMN B GF10]	120
UCGAAGGAUGGAAGGAGCGCUCGUCAGUCCUGCGAGUGAUGUUCGUGGGUAAAUAGUCGCGAGCAGGUAGGUCGCCAUCUUGAGC [Laxe]	114
GGAGGUUGGUGCGAUACCAGACCAGCAGUGAUGUUGCGCCAAAGUGAGUGAUGUUCACCGGUCCCUUGGCAGCGCAUUCCUUUAG [Same State Theophylline B GF 14]	1440
UGAUCUGCAGUGAUGUUGCAGUAGCUGUCAGAGGAUAUCAGACUCAUGAGAAGGCUGACAAUGUCUAACAGCACAAUGCUGUUCA [FMN A SS t6]	166
GCUAUGGUAGGAAGGAGCGCUUACUCGGUCAUAAGAGUGAUGUUCGAGACCGAGUAUUUAUAGCAGGUAGGUCGCCUACUAUAGC [Arginine B K4 6]	2.37
GGAUAGGAUAGAGGAUAUGGGUUAGGCAAGAAUAACUUGUCUAGUAAAUCCAUGAGGAGUGAUGUUCCAGAAGGCUGUCCUAUCG [MatMod 4 - Jieux - Exclusion - FMN B]	117
UGGAGUUGACGAAAAGUCAACUCCUGAGAUACCAGUGACGAAAGUCACCCUUGGCAGCUCACUGCCAGUGAUGUUGGUUCAUAAG [#03 K4 Theophylline A Same State]	152
CCAUCGCUGUUCGAUACCAGUCAUUUUUUAUUUUAUUUUUUUUUUGGAGUGAUGUUCCAAGACCCUUGGCAGCGGAUAGUGAUGG [whbob_SS_Theo_B_th80]	114
UACUAUAUUCUGUCGUUUUUAUUAGUUUGUCAGGAUAUCGUUUAUUCGAGAAGGGACACUAUCUAGUGAUGUUAGAUAUUUCUUU [JR_Nu3_ExcFMNA_Sub030]	92.7
UGUCAUUGGUCGGCCGCCACUUCAUGUAGAGUGAUGUUUUGUAGGACGGAUCGAAAGAUCUGUCGAAGGACCGGGACCGAUGACU [FiskerMod 15 - Jieux - Same State - Tryptophan B]	197
UGUCAUGGAAACAUGAACGUUAAAAUAAAUCGAGGACCGGUACGGCCGCCACUCGUAUAGCGGUCAGUGAUGUUGACUGUAGUAA [KL-SSTryp-A form2 sub8]	108
UGACUGGACUGAAGGAGCGAGCGAGACAAAGUCUCGAAAAUUCAGUGAUGUUGAUAUAUAACUCAGGUAGGUCGCAGUCUAGUCU [ArgBS 5 #SwitchBubble #StaticStem]	477
UUUAACGAGUGAUGUUCGAAAAGUAAUAGUUAGGAUAUCGUUUUUUCGAGAAGGAACUUCGAAGUGAUACGAAAGUAUCGCUUCG [FMN A 1]	287
CCUUCUCAUUUCCGUUAUCAUUGCCUUAGGAAGGAUAUCAUUAUUUUGAGAAGGUCCGUGGUCUAUUUUCCGAGUGAUGUUUGGU [theeternabot_exclusion_KL_FMN_A_45]	311
AAUAAAAUCACGGCCGCCACUGAUAUCCAUAUUAGGAGUGAUGUUCCUAUGACUAUAUAAUUUAACAGGACCGGGUGAAUAUUUA [JR_SSTryptoB_Sub024]	107
GUGGUACAGGCGGCCGCCACUAGUGAUGUUAGUGAUAGAAGAUAUAGUAAAUAUCGGCAUUUAGAUAGGACCGGGCCUGGUGGUG [xxfxcmullin]	305
CACUGGGCGAGUGAUGUUCGCUCACGUGAUACCAGUGCCAUCCAACACCCUUGGCAGCAUGCGGGCAGUGAUGUUGUCCAAAGAA [Exclusion Theophylline A GF9]	207
